Measurements: patent publication US20100092460A1 (Ablynx, published 2010)

T1: recombinant human CXCL11/I-TAC (human, UniProt O14625 22-94, biotinylated in the ELISA; 125I label in the radioligand assays)
T1 sequence (looked up): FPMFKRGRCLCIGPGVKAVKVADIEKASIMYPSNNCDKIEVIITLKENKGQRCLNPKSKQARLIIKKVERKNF

B1: Nanobody 8D1 (VHH)
VHH: EVQLVESGGGLVQPGGSLRLSCAASGFNLDDYAIGWFRQAPGKEREGVACASSTDGSTAYADSVKGRFTVSRDNAKNTVYLQMNSLKPEDTAVYYCAADPSDPFCPGLYYGMDYWGKGTLVTVSS
notes: llama VHH against CCL2; not shown: C-terminal c-myc tag and (His)6 tag coded by the vector
B2: Nanobody 8A5 (VHH)
VHH: QVQLVESGGGLVQAGGSLALSCAASGIAFSIFDMAWFRQTPGKEREAVARISHGGGKDYLDSVKGRFTISRDNAKNTVTLQMTSLKPEDTAVYYCNAKNSFRNLWGQGTQVTVSS
notes: as for B1
B3: Nanobody 15H4 (VHH)
VHH: EVQLVESGGGLVQAGGSLRLSCAASGLTFSTYPMGWFRQAPGKEREFVAAINSGGSSTYYADSVKGRFTISRDNAKNTVYLQMNSLKPEDTAVYSCAVKIYSGSYSSPPGYNYWGQGTQVTVSS
notes: as for B1
B4: Nanobody 8E1 (VHH)
VHH: EVQLVESGGGLVQAGGSLRLSCAASGLTFSTYPMGWFRQAPGKEREFVAAINSGGSYTYYADSVKGRFTISRDNAVNTIYLQMNSLKPEDTAVYSCAVKIYSGSYSSPPGYNHWGQGTQVTVSS
notes: as for B1
B5: Nanobody 8E5 (VHH)
VHH: EVQLVESGGGLVQAGGSLRLSCAASGGTFSSYRMAWFRQTPGKEREFVTLISRSGGTTDYTDSVKGRFTISRDNAKNTVYLQMNSLKPEDTAVYYCAAAGSMGWNHFREYDYWGQGTQVTVSS
notes: as for B1
B6: Nanobody 8A7 (VHH)
VHH: EVQLVESGGGLVQAGGSLRLSCAASGRTFSSYRMGWFRQAPEKEREFVAVISRSGGSTFYSNSVKGRFTISRDNAKNTVYLQMNSLKPEDTAVYYCAAGAQMGWAEASTYDYWGQGTQVTVSS
notes: as for B1
B7: Nanobody 8E7 (VHH)
VHH: EVQLVESGGGLVQAGGSLRLSCAASGGTFSSYRMGWFRQAPEKEREFVAVITRSGGSHSYSNSVKGRFTISRDNAKNTVYLQMNSLKPEDTAVYYCAAGAQMGWAEASTYDYWGQGTQVTVSS
notes: as for B1
B8: Nanobody 15F7 (VHH)
VHH: EVQLVESGGGLVQAGGSLRLPCAASGRTFSSYRMGWFRQAPEKEREFVAVISRSGGDTFYSSSVKGRFTISRDNAKNTVYLQMNSLKPEDTAVYYCAAGAQMGWAEASTYDYWGQGTQVTVSS
notes: as for B1
B9: Nanobody 8D7 (VHH)
VHH: EVQLVESGGGLVQAGGSLRLSCAASGRTFSSYRMGWFRQAPEKEREFVALITRSGGTTFYSNSVKGRFTISRDNAKNTVYLQMNSLEPEDTAVYYCAAGAQMGWAEASTYDYWGQGTQVTVSS
notes: as for B1
B10: Nanobody 15H7 (VHH)
VHH: EVQLVKSGGGLVQAGGSLRLSCAASGRTFSSYRMGWFRQAPEKEREFVALISRSGGTTFYSNSVKGRFTISRDNAKNTVYLQMNSLEPEDTAVYYCAAGAQMGWAEASTYDYWGQGTQVTVSS
notes: as for B1
B11: Nanobody 15H3 (VHH)
VHH: EVQLVESGGGLVQAGGSLRLSCAASGGTFSNYAMGWFRQAPEKEREFVAAVIWRGGSTYYADSVKGRFTISRDNARNTVYLQMNSLKPEDTAVYYCAADLLGNSDYEPSSGFGSWGQGTQVTVSS
notes: as for B1
B12: Nanobody 8D5 (VHH)
VHH: EVQLVESGGGLVQAGGSLRLSCAASGRTFSNYAMDWFRQAPGKEREFVAAISKSDGSTYYADSVKGRFTISRDNAKNTVYLQMNSLKPEDTAVYYCAAEGDSSPMGGVTYDYWGQGTQVTVSS
notes: as for B1
B13: Nanobody 8B2 (VHH)
VHH: EVQLVESGGGLVQAGGSLRLSCAASGGTFASYGMGWFRQYPGKEREFVAAISRSGDSTYYADSVKGRFTISRDNAKNTVYLQMNSLKPEDTAVYYCAAGRFIPQLSAYDYWGQGTQVTVSS
notes: as for B1
B14: Nanobody 11G8 (VHH)
VHH: EVQLVESGGGLVQAGGSLRLSCAASGRTFSSYAMGWFRQAPGKEQEFVAAISWSGGSTYYADSVKGRFTISRDNAKNTVYLQMNSLKPEDTAVYYCAAHDVDDDESPYYSGGYYRALYDYWGQGTQVTVSS
notes: llama VHH against CXCL11; not shown: C-terminal c-myc tag and (His)6 tag coded by the vector
B15: Nanobody 11D1 (VHH)
VHH: EVQLVESGGGLVQAGGSLRLSCAASGFTLNDYAIGWFRQAPGKEREGVSLISSDDGSTYYADSVKGRFTISSDNAKNTVYLQMNSLKPEDTAVYYCAAAQGLLLLSLWVPTQYDYWGQGTQVTVSS
notes: as for B14
B16: Nanobody 11B8 (VHH)
VHH: EVQLVESGGGLVQPGGSLRLSCAASGFTLDDYVIGWFRQAPGKEREGVSGISSSDGSTYYADSVKGRFTISRDNAKNTVYLQMNSLKPEDTAVYYCAAGMGVLRLWVLSKLSYDYWGQGTQVTVSS
notes: as for B14
B17: Nanobody 11F7 (VHH)
VHH: EVQLVESGGGLVQAGGSLRLSCAASGGTFTKQTMGWFRQTPGKDREFVAVQWWTGLSTYSAEYADSVKGRFTISRDNAKNTAYLQMNSLKFEDTAVYYCAAGLGVVRTFIRRASSYDDWGQGTQVTVSS
notes: as for B14
B18: Nanobody 11D10 (VHH)
VHH: EVQLVESGGGLVQAGGSLRLSCAASGFTIDDYAIGWFRQAPGKEREGVSCISSSDGSTYYADSVKGRFTISSDNAKNTVYLQMNSLKPEDTAVYYCAAAQGLVVTEMFVGRSYDYWGQGTQVTVSS
notes: as for B14
B19: Nanobody 11C7 (VHH)
VHH: EVQLVESGGGLVQAGGSLRLSCAAASGGTFTKQTISWFRQAPGKDREFVAAQWWSGLSTYFAEYADSVKGRFTISRDNAKNTAYLEMNSLKFEDTAVYYCAAGLGVVRTLIRRASSYDYWGQGTQVTVSS
notes: as for B14
B20: Nanobody 11E5 (VHH)
VHH: EVQLVESGGGLVQAGGSLRLSCAASGFTFDDYAIGWFRQAPGKEREGVSWISSSDKDTYYADSVKGRFTISSDNAKNTVYLQMNSLKPEDTAVYYCAAGAGLLIATIWTTQMYDYWGQGTQVTVSS
notes: as for B14
B21: Nanobody 11D5 (VHH)
VHH: EVQLVESGGGLVQPGGSLRLSCAASRSGLSINAMGWFRQAPGKQRELVASITRGGPTIYADSVKGRFTISGDNAKNTVYLQMNSLKPEDTAVYYCNALIDYGLGFPIEYWGQGTQVTVSS
notes: as for B14
B22: Nanobody 11A1 (VHH)
VHH: EVQLVESGGGLVQAGGSLRLSCAASGFTLDDYAIGWFRQAPGKEREGVSCISSIDGDTVYADSVKGRFTASSDNAKNTAYLQMNSLKPEDTAVYYCAAGQGLLTAQALRWESYDYWGQGTQVTVSS
notes: as for B14
B23: Nanobody 11E2 (VHH)
VHH: EVQLVESGGGLVQAGGSLRLSCAASGFTFDDYAIGWFRQAPGKEREGVSCISSSDDSTYYADSVKGRFTISSDTAKNTVYLQMDSLKPEDTAVYYCAKDCIIPPIGSWGQGTQVTVSS
notes: as for B14
B24: Nanobody 11F2 (VHH)
VHH: EVQLVESGGGLVQPGGSLRLSCAASGFTFSSYAMSWVRQAPGKGLEWVSSIYSDGSNTYYADSVKGRFTISRDNAKNTLYLQMNSLKSEDTAVYYCAKKDYAVVPLDEYDYWGQGTQVTVSS
notes: llama VHH against CXCL11; also called 38D11; not shown: C-terminal c-myc tag and (His)6 tag coded by the vector
B25: Nanobody 11G2 (VHH)
VHH: EVQLVESGGGLVQAGGSLRLSCAASGFTFDDYAIGWFRQAPGKEREGVSWISSSDGSTYYADSVKGRFTISSDNAKNTVYLQMNSLKPEDTAVYYCAAGAGFLITTIWTTQMYDYWGQGTQVTVSS
notes: as for B14
B26: Nanobody 11C2 (VHH)
VHH: EVQLVESGGGLVQAGGSLRLPCAASGFTFDDYVIGWFRQAPGKEREGVSLISSSDGSTYYADSVKGRFTISSDNAKNTVYLQMNGLKPEDTAVYYCAATSSIPYYSGSYYPNPFEYDYWGQGTQVTVSS
notes: as for B14
B27: Nanobody 11D2 (VHH)
VHH: EVQLVESGGGLVQAGGSLRLSCAASGFSFDDYAIGWFRQAPGKEREGVSLISSSDGSTYYADSVKGRFTISSDNAKNTVYLQMNSLKPEDTAVYYCAAGQGLLRAQALRWESYDYWGQGTQVTVSS
notes: llama VHH against CXCL11; also called 11G1; 11H1; not shown: C-terminal c-myc tag and (His)6 tag coded by the vector
B28: Nanobody 11A3 (VHH)
VHH: EVQLVESGGGLVQAGGSLRLSCAASGFSFDDYVIGWFRQAPGKEREGVSLISSSDGSTYYADSVKGRFTISSDNAKNTVYLQMNSLKPEDTAVYYCAAGNGLLRLWMFHVSAYDYWGQGTQVTVSS
notes: as for B14
B29: Nanobody 11H2 (VHH)
VHH: EVQLVESGGGLVQAGGSLRLSCAASGFTFDDYAIGWFRQAPGKEREGVSCISSSDGDTYYADSVKGRFTASSDNAKNTVYLQINSLKPEDTAVYYCAAGQGLLIAQALRWESYDYWGQGTQVTVSS
notes: llama VHH against CXCL11; purified; not shown: C-terminal c-myc tag and (His)6 tag coded by the vector
B30: Nanobody 8H7 (VHH)
VHH: EVQLVESGGGLVQAGDSLRLSCAASGRTFSSYRMGWFRQAPGKEREFVAAISRSGASAYYADSVKGRFTSSRDNAKNTVYLQMNKLKPEDTAVYYCAASSRIGVDDPEAYGYWSQGTQVTVSS
notes: as for B1

target: T2, recombinant human CCL2/MCP1 (human, UniProt P13500 24-99, 125I label in the radioligand assays); test: ELISA, periplasmic extract on coated CCL2, anti-myc detection
T2 construct: Immunogen and selection antigen was the Mucin stalk Chimera (R&D 979-MC/CF)
T2 sequence (P13500 24-99 limits assumed): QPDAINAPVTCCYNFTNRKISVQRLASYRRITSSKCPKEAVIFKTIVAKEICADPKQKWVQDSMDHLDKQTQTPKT

Binder | binding result
B1 | binds
B2 | binds
B3 | binds
B4 | binds
B5 | binds
B6 | binds
B7 | binds
B8 | binds
B9 | binds
B10 | binds
B11 | binds
B12 | binds
B13 | binds

target: T1, recombinant human CXCL11/I-TAC; test: inhibition of 125I-CXCL11 binding to hCXCR3 (HEK293T cells), 10x diluted periplasm

Binder | binding result
B14 | binds
B15 | binds
B16 | binds
B17 | binds
B18 | binds
B19 | binds
B20 | binds
B21 | binds
B22 | binds

target: T1, recombinant human CXCL11/I-TAC; test: inhibition of 125I-CXCL11 binding to hCXCR3 (HEK293T cells), 10x diluted periplasm; ELISA grade at the label

Binder | binding result
B23 | binds
B24 | binds
B25 | binds
B26 | binds
B27 | binds
B28 | binds
B29 | binds

target: T2, recombinant human CCL2/MCP1; test: inhibition of 125I-CCL2 binding to HCMV-US28 (HEK293T cells), 10x diluted periplasm; ELISA grade at the label

Binder | binding result
B30 | binds
